Experimental data from publication PMC3541276.
pKd: −log10 of the molar value.

What was measured:
[1] = target: rabbit muscle G-actin (rabbit) (UniProt P68135); experiment: ITC; 20°C; TbCof (0.15 mM, syringe) injected into ADP-G-actin (0.015 mM, cell); ADP-G-buffer: 10 mM Tris, 0.2 mM CaCl2, 0.2 mM ADP, 2.0 mM BME, pH 7.4 (low ionic strength); one-site model
[2] = target: rabbit muscle G-actin (rabbit) (UniProt P68135); experiment: ITC; 20°C; TbCof (0.28 mM, syringe) injected into ATP-G-actin (0.028 mM, cell); ATP-G-buffer: 10 mM Tris, 0.2 mM CaCl2, 0.2 mM ATP, 2.0 mM BME, pH 7.4 (low ionic strength); one-site model

“ADF/cofilin from Trypanosoma brucei (TbCof), His6 tag cleaved with TEV protease (natural protein)” gave a pKd [1] of 7.10, a dH [1] of -9480 cal/mol and a stoichiometry N [1] of 1. It also gave a pKd [2] of 6.44, a dH [2] of -3930 cal/mol and a stoichiometry N [2] of 1.
